Results from patent US20240018502.

What was measured:
[1] = target: complement protein C3 of cynomolgus monkey plasma
[2] = target: human complement protein C3
[3] = target: T1, quenched fluorescence peptidic substrate containing SKGR/SL (P4-P2' of the PAR-2 activation cleavage site, Ser 33 to Leu 38)
T1 chain: SKGRSL

Protein	ED50 80% cynomolgus plasma (nM), C3 cleavage, C3 ELISA [1]	ED50 80% human plasma (60 min, nM), C3 cleavage [2]	SKGR/SL kcat/Km [3]	further results
Wild-type MTSP-1 protease domain with C122S (protein) VVGGTDADEGEWPWQVSLHALGQGHICGASLISPNWLVSAAHCYIDDRGFRYSDPTQWTAFLGLHDQSQRSAPGVQERRLKRIISHPFFNDFTFDYDIALLELEKPAEYSSMVRPISLPDASHVFPAGKAIWVTGWGHTQYGGTGALILQKGEIRVINQTTCENLLPQQITPRMMCVGFLSGGVDSCQGDSGGPLSSVEADGRIFQAGVVSWGDGCAQRNKPGVYTRLPLFRDWIKENTGV	2800 nM	3500 nM	200000 M⁻¹ s⁻¹	ED50 of cleavage of human C3 [2]: compared to 11 nM for the wild-type protease domain of SEQ ID NO:4
Q38H/I41A/D60bV/F60eR/Y60gW/D96I/F97N/T98G/F99L/C122S/G151N/Q175L/Q192D (protein) VVGGTDADEGEWPWQVSLHALGHGHACGASLISPNWLVSAAHCYIDVRGRRWSDPTQWTAFLGLHDQSQRSAPGVQERRLKRIISHPFFNINGLDYDIALLELEKPAEYSSMVRPISLPDASHVFPAGKAIWVTGWGHTQYGGTNALILQKGEIRVINQTTCENLLPQLITPRMMCVGFLSGGVDSCDGDSGGPLSSVEADGRIFQAGVVSWGDGCAQRNKPGVYTRLPLFRDWIKENTGV	58 nM	24 nM	3560 M⁻¹ s⁻¹	
Q38H/I41S/D60bT/F60eS/Y60gW/D96K/F97D/ins97aA/T98P/F99L/C122S/G151H/Q175L/Q192D (protein) VVGGTDADEGEWPWQVSLHALGHGHSCGASLISPNWLVSAAHCYIDTRGSRWSDPTQWTAFLGLHDQSQRSAPGVQERRLKRIISHPFFNKDAPLDYDIALLELEKPAEYSSMVRPISLPDASHVFPAGKAIWVTGWGHTQYGGTHALILQKGEIRVINQTTCENLLPQLITPRMMCVGFLSGGVDSCDGDSGGPLSSVEADGRIFQAGVVSWGDGCAQRNKPGVYTRLPLFRDWIKENTGV	85 nM	34 nM	4030 M⁻¹ s⁻¹	
Q38H/I41S/D60bT/F60eS/Y60gW/D96K/F97G/ins97aV/T98P/F99L/C122S/G151H/Q175L/Q192D (protein) VVGGTDADEGEWPWQVSLHALGHGHSCGASLISPNWLVSAAHCYIDTRGSRWSDPTQWTAFLGLHDQSQRSAPGVQERRLKRIISHPFFNKGVPLDYDIALLELEKPAEYSSMVRPISLPDASHVFPAGKAIWVTGWGHTQYGGTHALILQKGEIRVINQTTCENLLPQLITPRMMCVGFLSGGVDSCDGDSGGPLSSVEADGRIFQAGVVSWGDGCAQRNKPGVYTRLPLFRDWIKENTGV	92 nM	25 nM	6210 M⁻¹ s⁻¹	C3H50 Hemolytic Activity (U/mL), C3-depleted serum plus purified C3; Test Condition #1 (C3 and 8 nM test article incubated separately, no pre-cleavage) [2]: 470 U/mL; C3H50 Hemolytic Activity (U/mL), C3-depleted serum plus purified C3; Test Condition #1 (C3 and 40 nM test article incubated separately, no pre-cleavage) [2]: 594 U/mL; C3H50 Hemolytic Activity (U/mL), C3-depleted serum plus purified C3; Test Condition #1 (C3 and 200 nM test article incubated separately, no pre-cleavage) [2]: 438 U/mL; C3H50 Hemolytic Activity (U/mL), C3-depleted serum plus purified C3; Test Condition #2 (C3 pre-incubated 2 h at 37 C with 8 nM test article) [2]: 295 U/mL; C3H50 Hemolytic Activity (U/mL), C3-depleted serum plus purified C3; Test Condition #2 (C3 pre-incubated 2 h at 37 C with 40 nM test article) [2]: 97.9 U/mL; C3H50 Hemolytic Activity (U/mL), C3-depleted serum plus purified C3; Test Condition #2 (C3 pre-incubated 2 h at 37 C with 200 nM test article) [2]: 73.7 U/mL; CH50 hemolytic activity (U/mL), human citrated plasma after 1 h at 37 C with 3.2 nM test article [2]: 73 U/mL; CH50 hemolytic activity (U/mL), human citrated plasma after 1 h at 37 C with 16 nM test article [2]: 69 U/mL; CH50 hemolytic activity (U/mL), human citrated plasma after 1 h at 37 C with 80 nM test article [2]: 41.5 U/mL; CH50 hemolytic activity (U/mL), human citrated plasma after 1 h at 37 C with 400 nM test article [2]: 10.8 U/mL; CH50 hemolytic activity (U/mL), human citrated plasma after 1 h at 37 C with 2000 nM test article [2]: 5.56 U/mL
I41R/F97T/Ins97aE/T98G/F99L/C122S/G151N/Q175L/Q192E (protein) VVGGTDADEGEWPWQVSLHALGQGHRCGASLISPNWLVSAAHCYIDDRGFRYSDPTQWTAFLGLHDQSQRSAPGVQERRLKRIISHPFFNDTEGLDYDIALLELEKPAEYSSMVRPISLPDASHVFPAGKAIWVTGWGHTQYGGTNALILQKGEIRVINQTTCENLLPQLITPRMMCVGFLSGGVDSCEGDSGGPLSSVEADGRIFQAGVVSWGDGCAQRNKPGVYTRLPLFRDWIKENTGV	2200 nM	835 nM	< 100 M⁻¹ s⁻¹	
Q38H/I41A/D60bV/F60eR/Y60gW/D96I/F97Y/ins97aN/T98G/F99L/C122S/G151N/Q175L/Q192D (protein) VVGGTDADEGEWPWQVSLHALGHGHACGASLISPNWLVSAAHCYIDVRGRRWSDPTQWTAFLGLHDQSQRSAPGVQERRLKRIISHPFFNIYNGLDYDIALLELEKPAEYSSMVRPISLPDASHVFPAGKAIWVTGWGHTQYGGTNALILQKGEIRVINQTTCENLLPQLITPRMMCVGFLSGGVDSCDGDSGGPLSSVEADGRIFQAGVVSWGDGCAQRNKPGVYTRLPLFRDWIKENTGV	37 nM	27 nM	2320 M⁻¹ s⁻¹	
Q38H/I41A/D60bV/F60eR/Y60gW/D96P/F97W/ins97aN/T98G/F99L/C122S/G151N/Q175L/Q192E (protein) VVGGTDADEGEWPWQVSLHALGHGHACGASLISPNWLVSAAHCYIDVRGRRWSDPTQWTAFLGLHDQSQRSAPGVQERRLKRIISHPFFNPWNGLDYDIALLELEKPAEYSSMVRPISLPDASHVFPAGKAIWVTGWGHTQYGGTNALILQKGEIRVINQTTCENLLPQLITPRMMCVGFLSGGVDSCEGDSGGPLSSVEADGRIFQAGVVSWGDGCAQRNKPGVYTRLPLFRDWIKENTGV	73 nM	47 nM	1620 M⁻¹ s⁻¹	
Q38H/I41S/D60bT/F60eS/Y60gW/F97D/ins97aV/T98P/F99L/C122S/G151H/Q175L/Q192D (protein) VVGGTDADEGEWPWQVSLHALGHGHSCGASLISPNWLVSAAHCYIDTRGSRWSDPTQWTAFLGLHDQSQRSAPGVQERRLKRIISHPFFNDDVPLDYDIALLELEKPAEYSSMVRPISLPDASHVFPAGKAIWVTGWGHTQYGGTHALILQKGEIRVINQTTCENLLPQLITPRMMCVGFLSGGVDSCDGDSGGPLSSVEADGRIFQAGVVSWGDGCAQRNKPGVYTRLPLFRDWIKENTGV	152 nM	50 nM	1730 M⁻¹ s⁻¹	
Q38H/I41S/D60bT/F60eS/Y60gW/F97D/ins97aV/T98P/F99L/C122S/G151H/Q175L/Q192E (protein) VVGGTDADEGEWPWQVSLHALGHGHSCGASLISPNWLVSAAHCYIDTRGSRWSDPTQWTAFLGLHDQSQRSAPGVQERRLKRIISHPFFNDDVPLDYDIALLELEKPAEYSSMVRPISLPDASHVFPAGKAIWVTGWGHTQYGGTHALILQKGEIRVINQTTCENLLPQLITPRMMCVGFLSGGVDSCEGDSGGPLSSVEADGRIFQAGVVSWGDGCAQRNKPGVYTRLPLFRDWIKENTGV	76 nM	50 nM	959 M⁻¹ s⁻¹	
Q38H/I41A/D60bT/F60eK/Y60gW/F97T/ins97aE/T98G/F99L/C122S/G151N/Q175L/Q192D (protein) VVGGTDADEGEWPWQVSLHALGHGHACGASLISPNWLVSAAHCYIDTRGKRWSDPTQWTAFLGLHDQSQRSAPGVQERRLKRIISHPFFNDTEGLDYDIALLELEKPAEYSSMVRPISLPDASHVFPAGKAIWVTGWGHTQYGGTNALILQKGEIRVINQTTCENLLPQLITPRMMCVGFLSGGVDSCDGDSGGPLSSVEADGRIFQAGVVSWGDGCAQRNKPGVYTRLPLFRDWIKENTGV	195 nM	65 nM	245 M⁻¹ s⁻¹	
Q38H/I41A/D60bV/F60eR/Y60gW/F97T/ins97aE/T98G/F99L/C122S/G151H/Q175L/Q192D (protein) VVGGTDADEGEWPWQVSLHALGHGHACGASLISPNWLVSAAHCYIDVRGRRWSDPTQWTAFLGLHDQSQRSAPGVQERRLKRIISHPFFNDTEGLDYDIALLELEKPAEYSSMVRPISLPDASHVFPAGKAIWVTGWGHTQYGGTHALILQKGEIRVINQTTCENLLPQLITPRMMCVGFLSGGVDSCDGDSGGPLSSVEADGRIFQAGVVSWGDGCAQRNKPGVYTRLPLFRDWIKENTGV	133 nM	32 nM	1360 M⁻¹ s⁻¹	
Q38H/I41A/D60bT/F60eK/Y60gW/F97T/ins97aE/T98G/F99L/C122S/G151H/Q175L/Q192D (protein) VVGGTDADEGEWPWQVSLHALGHGHACGASLISPNWLVSAAHCYIDTRGKRWSDPTQWTAFLGLHDQSQRSAPGVQERRLKRIISHPFFNDTEGLDYDIALLELEKPAEYSSMVRPISLPDASHVFPAGKAIWVTGWGHTQYGGTHALILQKGEIRVINQTTCENLLPQLITPRMMCVGFLSGGVDSCDGDSGGPLSSVEADGRIFQAGVVSWGDGCAQRNKPGVYTRLPLFRDWIKENTGV	136 nM	38 nM	742 M⁻¹ s⁻¹	
Q38H/I41A/D60bV/F60eR/Y60gW/F97T/ins97aE/T98G/F99L/C122S/G151N/Q175L/Q192D (protein) VVGGTDADEGEWPWQVSLHALGHGHACGASLISPNWLVSAAHCYIDVRGRRWSDPTQWTAFLGLHDQSQRSAPGVQERRLKRIISHPFFNDTEGLDYDIALLELEKPAEYSSMVRPISLPDASHVFPAGKAIWVTGWGHTQYGGTNALILQKGEIRVINQTTCENLLPQLITPRMMCVGFLSGGVDSCDGDSGGPLSSVEADGRIFQAGVVSWGDGCAQRNKPGVYTRLPLFRDWIKENTGV	101 nM	52 nM	925 M⁻¹ s⁻¹	
Q38H/I41S/D60bT/F60eS/Y60gW/F97D/ins97aV/T98P/F99L/C122S/G151N/Q175L/Q192D (protein) VVGGTDADEGEWPWQVSLHALGHGHSCGASLISPNWLVSAAHCYIDTRGSRWSDPTQWTAFLGLHDQSQRSAPGVQERRLKRIISHPFFNDDVPLDYDIALLELEKPAEYSSMVRPISLPDASHVFPAGKAIWVTGWGHTQYGGTNALILQKGEIRVINQTTCENLLPQLITPRMMCVGFLSGGVDSCDGDSGGPLSSVEADGRIFQAGVVSWGDGCAQRNKPGVYTRLPLFRDWIKENTGV	118 nM	41 nM	1730 M⁻¹ s⁻¹	
Q38H/I41S/D60bT/F60eS/Y60gW/D96L/F97D/ins97aG/T98N/F99L/C122S/G151H/Q175L/Q192E (protein) VVGGTDADEGEWPWQVSLHALGHGHSCGASLISPNWLVSAAHCYIDTRGSRWSDPTQWTAFLGLHDQSQRSAPGVQERRLKRIISHPFFNLDGNLDYDIALLELEKPAEYSSMVRPISLPDASHVFPAGKAIWVTGWGHTQYGGTHALILQKGEIRVINQTTCENLLPQLITPRMMCVGFLSGGVDSCEGDSGGPLSSVEADGRIFQAGVVSWGDGCAQRNKPGVYTRLPLFRDWIKENTGV	70 nM	39 nM	1300 M⁻¹ s⁻¹	
Q38H/I41S/D60bT/F60eS/Y60gW/D96Y/F97E/ins97aV/T98G/F99L/C122S/G151H/Q175L/Q192D (protein) VVGGTDADEGEWPWQVSLHALGHGHSCGASLISPNWLVSAAHCYIDTRGSRWSDPTQWTAFLGLHDQSQRSAPGVQERRLKRIISHPFFNYEVGLDYDIALLELEKPAEYSSMVRPISLPDASHVFPAGKAIWVTGWGHTQYGGTHALILQKGEIRVINQTTCENLLPQLITPRMMCVGFLSGGVDSCDGDSGGPLSSVEADGRIFQAGVVSWGDGCAQRNKPGVYTRLPLFRDWIKENTGV	133 nM	38 nM	865 M⁻¹ s⁻¹	
